According to patent US20190169289A1:

Experiments:
[1] = molecular target: CART19; experiment: flow cytometry of CART19 T cells; filled histogram with a second population at about 10^3-10^4 against a dashed control histogram; the legend names an AF647 conjugate, the axis prints APC
[2] = molecular target: anti-GCN4 (52SR4 scFv) sCAR with CD8 hinge; experiment: flow cytometry of CD8 sCAR T cells; filled histogram with a second peak at about 10^4 against a dashed control histogram; the legend names an AF647 conjugate, the axis prints APC
Chain of anti-GCN4 (52SR4 scFv) sCAR with CD8 hinge (chain, as listed by the source limits assumed): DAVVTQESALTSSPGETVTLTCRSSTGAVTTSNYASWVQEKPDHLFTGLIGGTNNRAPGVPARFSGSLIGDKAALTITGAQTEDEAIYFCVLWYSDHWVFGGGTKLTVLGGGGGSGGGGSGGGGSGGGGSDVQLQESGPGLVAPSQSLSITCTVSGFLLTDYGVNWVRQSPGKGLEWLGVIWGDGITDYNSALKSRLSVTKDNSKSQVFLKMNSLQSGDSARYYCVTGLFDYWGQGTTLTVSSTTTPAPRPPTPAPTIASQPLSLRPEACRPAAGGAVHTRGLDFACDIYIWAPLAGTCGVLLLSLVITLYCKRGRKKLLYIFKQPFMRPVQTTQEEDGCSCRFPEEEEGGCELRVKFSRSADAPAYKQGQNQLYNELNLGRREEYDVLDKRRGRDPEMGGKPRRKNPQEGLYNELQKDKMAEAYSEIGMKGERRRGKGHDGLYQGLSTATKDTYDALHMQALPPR

[3] = molecular target: HLA molecules on T2 cells loaded with the NY-ESO-1 peptide; experiment: cell-based or functional assay

Chain of CART19 (chimeric antigen receptor, as listed by the source limits assumed): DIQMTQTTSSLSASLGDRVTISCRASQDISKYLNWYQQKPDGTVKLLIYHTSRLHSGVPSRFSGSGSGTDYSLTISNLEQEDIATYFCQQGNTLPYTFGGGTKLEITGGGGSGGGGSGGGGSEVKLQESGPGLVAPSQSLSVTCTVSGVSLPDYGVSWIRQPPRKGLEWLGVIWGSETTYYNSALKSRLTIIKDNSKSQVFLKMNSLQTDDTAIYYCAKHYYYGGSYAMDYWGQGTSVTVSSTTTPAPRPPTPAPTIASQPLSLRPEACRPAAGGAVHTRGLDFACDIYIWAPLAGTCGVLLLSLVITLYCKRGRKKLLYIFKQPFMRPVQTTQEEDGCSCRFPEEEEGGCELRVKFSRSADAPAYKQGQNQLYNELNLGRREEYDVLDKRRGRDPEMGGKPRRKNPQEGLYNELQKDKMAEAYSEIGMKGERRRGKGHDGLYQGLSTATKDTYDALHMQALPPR

number beside the gate bar of the histogram (share of cells in the positive gate; name not given) [1]	number beside the gate bar of the histogram (share of cells in the positive gate; name not given) [2]	sTCR switch concentration at which IFNg, IL-2 and TNFa are produced [3] [pM]	sTCR switch concentration at which T cells express CD25 and CD69 [3] [pM]	Substance
53.3	69.3	–	–	APC-conjugated goat-anti mouse IgG (H&L) polyclonal antibody
–	–	> 10	> 1	NY-ESO-1 specific soluble TCR 1G4c113 with C-terminal GCN4 peptide and 6x HIS tag on the beta chain
